According to patent publication CN117180420A (DRAGONBOAT BIOPHARMACEUTICAL SHANGHAI CO LTD, dated 2023):

Target: T1, CD47 on NUGC-4 cells / hCLDN18.2-NUGC-4 cells (human, UniProt Q08722 19-323)
T1 construct: whole, on cells; also called 内源CD47; 人CD47
Assay: flow cytometry, blocking of SIRPα-mFc binding to hCLDN18.2-NUGC-4 cells

T1 sequence (Q08722 19-323): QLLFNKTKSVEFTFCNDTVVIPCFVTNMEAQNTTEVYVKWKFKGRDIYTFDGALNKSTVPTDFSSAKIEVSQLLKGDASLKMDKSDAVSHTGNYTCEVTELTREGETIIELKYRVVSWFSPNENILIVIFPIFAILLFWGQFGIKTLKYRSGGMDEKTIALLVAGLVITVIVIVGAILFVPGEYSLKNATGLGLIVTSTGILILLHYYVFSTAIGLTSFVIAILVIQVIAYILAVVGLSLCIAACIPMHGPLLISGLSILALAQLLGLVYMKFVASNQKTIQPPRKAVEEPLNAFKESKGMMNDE

IC50: 1.98 µg/mL
B1: 抗体1F8 (WO2018075857A1中1F8抗体) (antibody, V domains shown)
VH: KVQLVESGGGLVKPGGSLRLSCAASGFTFSNAWMNWVRQAPGKGLEWVGRIKRKTDGETTDYAAPVKGRFSISRDDSKNTLYLQMNSLKTEDTAVYYCAGSNRAFDIWGQGTMVTVSA
VL: DIVMTQSPDSLAVSLGERATINCKSSQSVLYSSNNRNYLAWYQQKPGQPPKLLINQASTRASGVPDRFSGSGSGTEFTLIISSLHAEDVAIYYCQQYYTPPLAFGGGTKLEIK
